Results from article PMC11137178, “Protein disulfide isomerase-9 interacts with the lumenal region of the transmembrane endoplasmic reticulum stress sensor kinase, IRE1, to modulate the unfolded protein response in Arabidopsis” (Frontiers in Plant Science, 2024).
Changes are numbered by the printed parent chain. Numbers in names are those of the source.

T1: PDI9:mCherry-KDEL (Arabidopsis thaliana, UniProt O48773 25-440)
T1 construct: Protein disulfide isomerase-9 (PDI9, PDI-M subfamily), Arabidopsis thaliana, At2g32920; made from the earlier construct PDI9:GFP-KDEL (Yuen et al., 2013) by exchanging GFP for mCherry; also called PDI9:Cherry-KDEL; PDI9:RFP; source: Arabidopsis leaf mesophyll protoplasts, transiently transfected, in living cells; not shown: mCherry-KDEL, C-terminal, kept
T1 sequence (looked up): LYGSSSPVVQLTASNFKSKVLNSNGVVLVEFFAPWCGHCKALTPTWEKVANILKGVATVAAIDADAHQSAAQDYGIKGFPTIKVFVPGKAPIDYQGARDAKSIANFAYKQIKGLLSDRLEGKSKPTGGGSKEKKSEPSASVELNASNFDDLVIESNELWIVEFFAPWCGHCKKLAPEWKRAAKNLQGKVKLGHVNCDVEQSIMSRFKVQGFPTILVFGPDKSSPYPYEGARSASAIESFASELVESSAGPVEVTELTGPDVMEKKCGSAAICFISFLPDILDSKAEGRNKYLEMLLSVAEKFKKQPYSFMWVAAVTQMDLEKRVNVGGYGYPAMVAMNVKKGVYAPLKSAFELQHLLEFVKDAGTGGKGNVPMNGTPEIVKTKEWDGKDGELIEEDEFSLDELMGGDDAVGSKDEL

T2: PDI9(C63A):mCherry-KDEL (Arabidopsis thaliana, UniProt O48773 25-440, C63A)
T2 construct: PDI9, Arabidopsis thaliana, At2g32920; as m1 with the second cysteine of the first thioredoxin active site (CGHC to CGHA) changed; Parent construct m1; source: Arabidopsis leaf mesophyll protoplasts, transiently transfected, in living cells; not shown: mCherry-KDEL, C-terminal, kept
T2 sequence (looked up): T1 sequence (looked up) with C39A

B1: GFP : IRE1A (receptor, Arabidopsis thaliana, UniProt Q9C5S2 31-841, looked up)
chain: DDVTYPIVPSSPGRRSILQIRREPPTEPNTKLVVDRDGKVFLKQQPKETPYWSFSTGSPMHSLYQAPANNNTENATEITRPHIIVEYLNNSKAATTVDGYHNWTVQEFFRQKPLVTDDGVTLGSETTSAYLVDGRSGRLIHVYKSTGDTKITNALVKPASTEDFVNEPLLIRRTDSKLEHFSKTTGKLVWNLTVSHFRAALLCDPVFNSGYDLGPKLQTGIYMPLLCGSQIDVRGPEIVIRVLHDQPMNVKMLPSPSLNHFESENSIMPFGKARESRKLQEQHKQKYTYLFGQWSPVKLLAPLVLLGVVVSVFIKKFSSRGSDVSLKAGPSKKKKNRKSAKDTNRQSVPRGQDQFELIEGGQMLLGFNNFQSGATDGRKIGKLFLSSKEIAKGSNGTVVFEGIYEGRPVAVKRLVRSHHEVAFKEIQNLIASDQHTNIIRWYGVEYDQDFVYLSLERCTCSLDDLIKSYLEFSMTKVLENNDSTEGVAAYKIQLDSLEGVIKGNNFWKVGGHPSPLMLKLMRDIVCGIVHLHELGIVHRDLKPQNVLISKDMTLSAKLSDMGISKRMSRDMSSLGHLATGSGSSGWQAPEQLLQGRQTRAVDMFSLGCVIFYTITGCKHPFGDDLERDVNIVKNKVDLFLVEHVPEASDLISRLLNPDPDLRPSATEVLLHPMFWNSEMRLSFLRDASDRVELENREADSEILKAMESTAPVAIGGKWDEKLEPVFITNIGRYRRYKYDSIRDLLRVIRNKLNHHRELPPEIQELVGTVPEGFDEYFAVRFPKLLIEVYRVISLHCREEEVFRKYFKCDII
notes: IRE1A (inositol-requiring enzyme-1 kinase), Arabidopsis thaliana, At2g17520; mature polypeptide region amplified from Col-0 genomic DNA and placed after the IRE1A signal peptide and GFP; Construct order: IRE1A signal peptide, GFP, mature IRE1A; source: Arabidopsis leaf mesophyll protoplasts, transiently transfected; in living cells (FLIM-FRET) and in protoplast extract (co-I.P.); not shown: GFP …
B2: GFP : IRE1B (receptor, Arabidopsis thaliana, UniProt Q93VJ2 22-881, looked up)
chain: FKGSEISKFYDKSISNQISQSDRESGYVLVSTVDGSISLVDMSSQKLDWTFHTNEPIYSSYQAPHYHYTTDEERSSVLGDDFYMDCDKDWRLYNSSVRKGKRVNEIVDASEFIGTLPYTSTDRIVLGKKDTSVFLLDWKTGKLVKRYRMDELYSNTVVENDKEKAIVLSKEAPLLFGSGFKKSEDFPELVYIERKDFKIQCISKFGDVLWSVSYAKMEAKLQNHESVQFISGLSSSVGKNQFPLSYTTSVPMVQLRNVKYETLFPRLGFLDEALYLPFQDRKPNQLAIGDGNQLTLPGNKEAEEVLSLPLPETVISQITDIIDGSTKQAGFASKFSGLIVLIFGFCVTMLSVCGLFFYRLRQSIRIKEPYVSEVPIATPKKKKSKKNGTTKAVHKKENGFISGGNKDPSHEENEKRLLTAFPGLNNSSAEGYRVGKLFVSNKEIAKGSNGTVVLEGSYEGRLVAVKRLVQSHHDVAQKEILNLMASDKHSNIVRWYGVDQDEHFIYISLELCACSLNDLIYASSALLESPMASSSIHSIQINPIFENGKGVELWKENGHPSPVLLKLMRDIVAGLVHLHDIGIVHRDLKPQNVLIVKNSSLCAKLSDMGISKRLPADTSALTRNSTGLGSGSSGWQAPEQLRNERQTRAVDLFSLGCVLFFCMTGGKHPYGDNYERDVNVLNDQKDLFLIESLPEAVHLLTGLLNPDPNLRPRAQDVMHHPLFWNSDMRLSFLRDASDRVELENREEGSQLLAALESTAAVTLNGRWDEKLDSIFLDNIGRYRRYKFDSIRDLLRVIRNKLNHYRELPKELQELLGSVPEGFERYFSSRFPKLLIQVYTVLFDYCNNEEFFFKYSKTTVF
notes: IRE1B, Arabidopsis thaliana, At5g24360; mature polypeptide region amplified from Col-0 genomic DNA and placed after the IRE1B signal peptide and GFP; Construct order: IRE1B signal peptide, GFP, mature IRE1B; source: Arabidopsis leaf mesophyll protoplasts, transiently transfected; in living cells (FLIM-FRET) and in protoplast extract (co-I.P.); not shown: GFP (eGFP S65T), N-terminal, kept

Tests used:
PDI9:mCherry-KDEL = target: T1, PDI9:mCherry-KDEL; assay: FRET or BRET; FLIM-FRET in living Arabidopsis leaf mesophyll protoplasts coexpressing the GFP donor (on IRE1) and the mCherry acceptor (on PDI9), 16-18 h after transfection; GFP lifetime per region of interest; E = (1 - ti/t0) x 100% against single-transfected GFP:IRE1; settings: partners not purified
PDI9(C63A):mCherry-KDEL = target: T2, PDI9(C63A):mCherry-KDEL; assay: as above; settings: partners not purified

Binder | GFP donor fluorescence lifetime (PDI9:mCherry-KDEL) [ns] | GFP donor fluorescence lifetime (PDI9(C63A):mCherry-KDEL) [ns]
B1 | 2.29 | 2.42
B2 | 2.31 | 2.42
